Reference: patent US20050037969A1 (ARBOR VITA, published 2005)
Ends that are not written are not given here. * marks the point of attachment. Biotin = O=C1N[C@H]2[C@H](CS[C@H]2CCCCC(=O)*)N1

Columns and labels:
Assay in all cases: A/G assays
[1] = target: T1, NSP PDZ-GST fusion protein (Homo sapiens (Human), UniProt Q92743 370-466)
T1 construct: The label NSP is not explained in the excerpts

[2] = target: T2, GST-RGS12 PDZ domain fusion protein (human, UniProt O14924 17-85)
T2 construct: also called human regulator of G-protein signalling 12; not shown: glutathione S-transferase encoded by vector pGEX-3X (Pharmacia)
T2 sequence: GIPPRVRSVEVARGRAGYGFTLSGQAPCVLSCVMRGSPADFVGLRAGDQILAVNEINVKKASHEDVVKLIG

[3] = target: T3, GST-DLG5 (p-dlg) PDZ domain fusion protein (Human, UniProt Q8TDM6 1343-1583)
T3 construct: also called Human discs large protein p-dlg; not shown: glutathione S-transferase encoded by vector pGEX-3X (Pharmacia)
T3 sequence: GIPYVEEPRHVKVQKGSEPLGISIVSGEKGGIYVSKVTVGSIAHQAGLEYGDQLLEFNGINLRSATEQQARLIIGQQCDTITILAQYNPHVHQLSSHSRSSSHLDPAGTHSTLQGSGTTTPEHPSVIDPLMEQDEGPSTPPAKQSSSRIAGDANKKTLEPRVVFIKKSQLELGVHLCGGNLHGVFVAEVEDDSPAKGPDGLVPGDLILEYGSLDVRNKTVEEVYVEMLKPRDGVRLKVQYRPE

[4] = target: T4, GEF PDZ-GST fusion protein (Homo sapiens (Human), UniProt Q8TEU7 293-400)
T4 construct: The label GEF is not explained in the excerpts
T4 sequence: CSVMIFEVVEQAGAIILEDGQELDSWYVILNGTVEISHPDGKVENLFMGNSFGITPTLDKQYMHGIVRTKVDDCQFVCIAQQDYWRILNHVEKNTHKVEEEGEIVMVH

[5] = target: T5, GST-CASK PDZ domain fusion protein (Homo sapiens, UniProt O14936 486-575)
T5 construct: also called Homo sapiens CASK protein
T5 sequence: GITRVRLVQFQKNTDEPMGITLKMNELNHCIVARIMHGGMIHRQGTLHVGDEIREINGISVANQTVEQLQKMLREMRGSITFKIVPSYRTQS

[6] = target: T6, X11β PDZ-GST fusion protein (Rattus norvegicus (Rat), UniProt O35431 560-745)
T6 construct: Order of GST and PDZ part and limits not seen in the excerpts
T6 chain: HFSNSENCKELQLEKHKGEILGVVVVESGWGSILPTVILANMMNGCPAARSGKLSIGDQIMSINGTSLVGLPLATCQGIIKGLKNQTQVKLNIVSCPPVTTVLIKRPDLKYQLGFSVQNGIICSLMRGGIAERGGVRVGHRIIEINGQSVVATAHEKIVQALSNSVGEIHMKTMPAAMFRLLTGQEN

[7] = target: T7, GST-AF6 PDZ domain fusion protein (Homo sapiens (Human), UniProt P55196 1001-1093)
T7 construct: also called af-6 protein; not shown: glutathione S-transferase encoded by vector pGEX-3X (Pharmacia)
T7 sequence: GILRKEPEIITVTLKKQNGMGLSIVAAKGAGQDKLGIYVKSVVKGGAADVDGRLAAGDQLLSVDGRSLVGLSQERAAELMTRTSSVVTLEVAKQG

[8] = target: T8, TAX-IP2L PDZ-GST fusion protein (Homo sapiens (Human), UniProt Q8TF64 107-197)
T8 construct: Order of GST and PDZ part and limits not seen in the excerpts
T8 sequence: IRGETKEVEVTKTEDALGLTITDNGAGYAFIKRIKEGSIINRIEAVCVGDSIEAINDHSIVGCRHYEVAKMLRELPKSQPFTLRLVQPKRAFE

[9] = target: T9, GST-TAX-IP40 PDZ domain fusion protein (human, UniProt Q6B4M5 150-252 (rat entry))
T9 construct: also called TAX40; not shown: glutathione S-transferase encoded by vector pGEX-3X (Pharmacia)
T9 sequence: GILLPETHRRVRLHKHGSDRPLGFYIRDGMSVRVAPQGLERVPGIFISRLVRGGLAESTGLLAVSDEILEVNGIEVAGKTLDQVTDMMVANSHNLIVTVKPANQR

[10] = target: T10, MINT3 PDZ-GST fusion protein
T10 construct: Order of GST and PDZ part and limits not seen in the excerpts
T10 chain: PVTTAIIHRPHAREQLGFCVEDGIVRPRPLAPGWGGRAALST

[11] = target: T11, ConEn PDZ-GST fusion protein (Homo sapiens (Human), UniProt Q969H4 193-287)
T11 construct: The label ConEn is not explained in the excerpts
T11 sequence: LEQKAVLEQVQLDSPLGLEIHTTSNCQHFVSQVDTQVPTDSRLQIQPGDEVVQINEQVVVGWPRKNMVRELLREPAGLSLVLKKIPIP

[12] = target: T12, GST-cytohesin binding protein PDZ domain fusion protein (Homo sapiens (Human), UniProt O60759 74-165)
T12 construct: also called CBP; not shown: glutathione S-transferase encoded by vector pGEX-3X (Pharmacia)
T12 sequence: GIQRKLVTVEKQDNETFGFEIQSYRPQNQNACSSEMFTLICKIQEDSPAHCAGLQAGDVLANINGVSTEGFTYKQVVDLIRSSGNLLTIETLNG

[13] = target: T13, K858 PDZ-GST fusion protein (Homo sapiens (Human), UniProt Q8WWI1 1038-1131)
T13 construct: Order of GST and PDZ part and limits not seen in the excerpts
T13 sequence: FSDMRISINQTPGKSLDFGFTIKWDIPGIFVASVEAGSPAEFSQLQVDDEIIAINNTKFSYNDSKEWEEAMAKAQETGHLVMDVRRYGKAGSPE

[14] = target: T14, GST-KIAA0303 PDZ domain fusion protein (Homo sapiens (Human), UniProt O15021 1138-1228)
T14 construct: also called K303; not shown: glutathione S-transferase encoded by vector pGEX-3X (Pharmacia)
T14 sequence: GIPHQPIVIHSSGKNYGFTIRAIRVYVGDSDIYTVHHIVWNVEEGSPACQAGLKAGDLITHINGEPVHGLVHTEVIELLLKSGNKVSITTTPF

Measured: binding result

T1 sequence (Q92743 other isoform, or with tags, fused parts or gaps limits assumed): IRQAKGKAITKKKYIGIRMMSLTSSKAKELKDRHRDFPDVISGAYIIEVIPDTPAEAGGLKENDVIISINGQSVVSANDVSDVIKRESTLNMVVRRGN

Biotin-KKGTYLTDETHREVKFTSL [CD46 (Form 1) C-terminal peptide AA10L, biotinylated]
no binding: all assays above

Biotin-SVFSIPTLWSPWPPSSSSQL (also called CD3η; CD3-eta) [CD3n C-terminal peptide AA4L, biotinylated]
no binding: all assays above

Biotin-TTNNNPNSAVNIKKIFTDV [KV1.3 C-terminal peptide AA33L, biotinylated]
not listed: [2]
no binding: all other assays above

B1: Spectrin (beta) C-terminal peptide AA32L, biotinylated (peptide)
peptide: Biotin-SFPPCGHRENVPGQSLVSFV
notes: Marked (S), sticky; also called Spectrin beta (S); Spectrin β
no binding: [2] | [5] | [6] | [9] | [13]

Biotin-KDSRPSFVGSSSGHTSTTL (also called CDW128E (IL8RB)) [CDW128B (IL8RB) C-terminal peptide AA29.2L, biotinylated]
not listed: [2]
no binding: all other assays above

Biotin-LASKSAEEGKQIPDSLSTDL [DOCK2 C-terminal peptide AA40L, biotinylated]
no binding: all assays above

Biotin-ARKANMKGSYSLVEAQKSKV (also called CD106) [VCAM1 C-terminal peptide AA17L, biotinylated]
not listed: [14]
no binding: all other assays above

Biotin-PSWRRSSLSESENATSLTTF (also called CXCR5) [BLR-1 C-terminal peptide AA45L, biotinylated]
no binding: all assays above
